Test results reported in US20230357415A1 (AJOU UNIVERSITY INDUSTRY ACADEMIC COOPERATION FOUNDATION, published 2023).

T1: purified sIL-5Rα (Asp1-Asn313 of SEQ ID NO: 66) (Homo sapiens (Human), UniProt Q01344 21-333)
T1 construct: also called the purified sIL-5Rα
T1 sequence: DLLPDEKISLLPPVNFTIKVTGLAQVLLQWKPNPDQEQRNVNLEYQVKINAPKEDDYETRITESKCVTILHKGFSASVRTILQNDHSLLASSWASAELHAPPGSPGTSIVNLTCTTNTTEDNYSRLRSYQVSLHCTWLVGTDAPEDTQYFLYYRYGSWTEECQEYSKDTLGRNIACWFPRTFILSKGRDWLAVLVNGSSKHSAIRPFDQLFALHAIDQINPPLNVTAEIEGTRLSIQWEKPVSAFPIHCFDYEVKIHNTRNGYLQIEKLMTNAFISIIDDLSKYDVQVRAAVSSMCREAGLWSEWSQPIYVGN

T2: sIL-5Rα antigen protein (Sinobio 10392-H08H) (Homo sapiens (Human), UniProt Q01344 21-342)
T2 construct: Bought protein immobilised in the indirect ELISAs; also called soluble IL-5Rα; CD125
T2 sequence: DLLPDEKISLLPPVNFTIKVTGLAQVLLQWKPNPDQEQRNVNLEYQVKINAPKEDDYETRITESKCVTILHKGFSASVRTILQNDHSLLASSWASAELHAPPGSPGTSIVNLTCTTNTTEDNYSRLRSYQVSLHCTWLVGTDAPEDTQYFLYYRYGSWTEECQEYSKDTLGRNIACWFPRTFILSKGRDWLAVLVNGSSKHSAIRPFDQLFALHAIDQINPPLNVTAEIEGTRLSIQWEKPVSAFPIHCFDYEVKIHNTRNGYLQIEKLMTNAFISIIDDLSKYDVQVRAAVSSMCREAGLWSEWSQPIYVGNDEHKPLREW


Legend:
[1] = biological target: T1, purified sIL-5Rα (Asp1-Asn313 of SEQ ID …); experiment: BLI (Octet QKe), antibody on AHC sensor, purified sIL-5Rα in solution, 1:1 model
Experimental: Specifically, lx kinetic buffer was prepared by diluting 10× kinetic buffer (ForteBio, 18-1105) in PBS. […] Affinity was calculated with Octet Data Analysis software 11.0 in a 1:1 binding model.

[2] = biological target: T2, sIL-5Rα antigen protein (Sinobio …); experiment: indirect ELISA; plate-coated sIL-5Rα, antibody 100 nM, anti-human Fc-HRP, absorbance at 450 nm
Experimental: (§1) The binding specificity of the antibody was determined using indirect ELISA. A multi-antigen ELISA was performed using four structurally different antigenic double-stranded DNA (dsDNA), insulin, the macromolecule hemocyanin, and the membrane component, cardiolipin. Specifically, sIL-4Rα antigen protein (50 ng/well, sinobio; 10402-H08H), sIL-5Rα antigen protein (50 ng/well, sinobio; 10392-H08H), dsDNA (25 ng/well, D4522; Sigma), insulin (125 ng/well, 19278; Sigma), hemocyanin (125 ng/well, H8283; Sigma), and cardiolipin (1250 ng/well, C0563; Sigma) proteins were immobilized on a 96-well plate at room temperature for 1 hour, and blocked using 2% skim milk containing 0.1% PBST (0.1% Tween20, pH 7.4, 137 mM NaCl, 10 mM phosphate, 2.7 mM KCl) at room temperature for 1 hour. After discarding the solution and then washing the same three times with 0.1% PBST, the antibody was diluted to 100 nM, added to the blocked plate in an amount of 25 μl/well, and allowed to react at room temperature for 1 hour. After discarding the solution and washing the same three times with 0.1% PBST, an anti-human Fc-HRP antibody (1:8000) as a secondary antibody was added in an amount of 25 μl/well and reacted at room temperature for 1 hour. After discarding the solution and washing three times with PBST, a TMB solution was added in an amount of 25 μl/well, color development was induced at room temperature for 2 minutes, the reaction was stopped using H₂SO₄ (2N), and the absorbance at 450 nm was measured with an ELISA reader.

[3] = biological target: T3, sIL-4Rα (soluble IL-4Rα) antigen protein (human, UniProt P24394 26-232); experiment: BLI (Octet QKe), antibody on AHC sensor, sIL-4Rα in solution, 1:1 model
T3 construct: The ELISA and Octet assays used the bought protein (Sinobio 10402-H08H); also called CD124; sinobio 10402-H08H
Experimental: Antigen affinity of antibodies was analyzed through variation in the refractive index occurring when the antibody bound to the antigen was detached therefrom while the AHC (anti-human IgG Fc capture) sensor chip moved in the order of kinetic buffer, antibody dilution solution, kinetic buffer, antigen dilution solution, and kinetic buffer. Affinity was calculated with Octet Data Analysis software 11.0 in a 1:1 binding model.

insulin = biological target: T4, insulin (Homo sapiens (Human), UniProt P01308 25-54; P01308 90-110, Mature two-chain hormone: A and B chains joined by two interchain disulfides, plus one intrachain disulfide in the A chain; the letters do not carry these.); experiment: indirect ELISA; plate-coated insulin, antibody 100 nM, anti-human Fc-HRP, absorbance at 450 nm
T4 construct: Irrelevant antigen of the multi-antigen specificity ELISA; also called insulin (125 ng/well, 19278; Sigma)
Experimental: as §1

T4 sequence (P01308 25-54 limits assumed, chain 1 of 2): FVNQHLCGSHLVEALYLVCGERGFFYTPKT
T4 sequence (P01308 90-110 limits assumed, chain 2 of 2): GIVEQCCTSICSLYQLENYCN

Kd [1] [nM] | koff [1] [s⁻¹] | kon [1] [M⁻¹ s⁻¹] | binding result [2] | Kd [3] [nM] | koff [3] [s⁻¹] | kon [3] [M⁻¹ s⁻¹] | binding result (insulin) | Binder
14.5 | 0.000329 | 22700 | – | – | – | – | – | 5R65 (antibody, V domains shown, IgG1 (variable regions in a pcDNA3.4 vector encoding IgG1 constant regions); also called anti-IL-5Rα humanized antibody 5R65; anti-IL-5Rα antibody (5R65)) VH: QVQLVQSGAEVKKPGSSVKVSCKASGYTFTSYWINWVRQAPGQGLEWIGHIYPNKNENYYNHKFKDKATLTVDKSTNTAYMELSSLRSEDTAVYYCTRDYYGRSYYYAMDYWGQGTTLTVSS VL: DIQMTQSPSTLSASVGDRVTITCKASQNVGTAVAWYQQKPGKAPKLLIYWASTRHTGVPDRFSGSGSGTDFTLTISSLQPDDFATYYCQQFGRYPYTFGSGTKVEVK
5.95 | 0.000133 | 22400 | – | – | – | – | – | 5R65.18 (antibody, IgG1, V domains shown, IgG1) VH: QVQLVQSGAEVKKPGSSVKVSCKASGYTFTSYWINWVRQAPGQGLEWIGHIYPNKNENYYNHKFKDKATLTVDKSTNTAYMELSSLRSEDTAVYYCTREYYGRTYYSAMDYWGQGTTLTVSS VL: DIQMTQSPSTLSASVGDRVTITCKASQNVGTAVAWYQQKPGKAPKLLIYWASTRHTGVPDRFSGSGSGTDFTLTISSLQPDDFATYYCQQFGRYPYTFGSGTKVEVK
4.64 | 0.000147 | 31700 | – | – | – | – | – | 5R65.7 (antibody, IgG1, V domains shown, IgG1) VH: QVQLVQSGAEVKKPGSSVKVSCKASGYTFTSYWINWVRQAPGQGLEWIGHIYPNKNENYYNHKFKDKATLTVDKSTNTAYMELSSLRSEDTAVYYCTREFYGRQYYQAMDYWGQGTTLTVSS VL: DIQMTQSPSTLSASVGDRVTITCKASQNVGTAVAWYQQKPGKAPKLLIYWASTRHTGVPDRFSGSGSGTDFTLTISSLQPDDFATYYCQQFGRYPYTFGSGTKVEVK
8.64 | 0.000199 | 23000 | – | – | – | – | – | 5R65.14 (antibody, IgG1, V domains shown, IgG1) VH: QVQLVQSGAEVKKPGSSVKVSCKASGYTFTSYWINWVRQAPGQGLEWIGHIYPNKNENYYNHKFKDKATLTVDKSTNTAYMELSSLRSEDTAVYYCTREHYGRPYYNAMDYWGQGTTLTVSS VL: DIQMTQSPSTLSASVGDRVTITCKASQNVGTAVAWYQQKPGKAPKLLIYWASTRHTGVPDRFSGSGSGTDFTLTISSLQPDDFATYYCQQFGRYPYTFGSGTKVEVK
8.25 | 0.000201 | 24400 | – | – | – | – | – | 5R65.10 (antibody, IgG1, V domains shown, IgG1) VH: QVQLVQSGAEVKKPGSSVKVSCKASGYTFTSYWINWVRQAPGQGLEWIGHIYPNKNENYYNHKFKDKATLTVDKSTNTAYMELSSLRSEDTAVYYCTREYYGRSYYAAMDYWGQGTTLTVSS VL: DIQMTQSPSTLSASVGDRVTITCKASQNVGTAVAWYQQKPGKAPKLLIYWASTRHTGVPDRFSGSGSGTDFTLTISSLQPDDFATYYCQQFGRYPYTFGSGTKVEVK
– | – | – | binds | – | – | – | – | 4R34.1.19 antibody (antibody, V domains shown, Parent anti-IL-4Rα antibody, tested as IgG1 and captured through human Fc; also called anti-IL-4Rα antibody (4R34.1.19)) VH: EVQLLESGGGLVQPGGSLRLSCAASGFTFSRHAMAWVRQAPGKGLEWVSAITSSGRSIYYADSVKGRFTISRDNSKNTLYLQMNSLRAEDTAVYYCARVHRAFDYWGQGTLVTVSS VL: QSVLTQPPSASGTPGQRVTISCSGSPLFPDSGSFNWYQQLPGTAPKLLIYADSHRPSGVPDRFSGSKSGTSASLAISGLRSEDEADYYCGTWDYSLSGYVLGGGTKLTVLG
– | – | – | no binding (tested: 100 nM) | 0.0686 | 0.000139 | 2.02e+06 | no binding (tested: 100 nM) | 4R.N3 (antibody, V domains shown, Converted from scFab to IgG1 and expressed in HEK293F) VH: EVQLLESGGGLVQPGGSLRLSCAASGFTFSRHAMAWVRQAPGKGLEWVSAITMSGRSIYYADSVKGRFTISRDNSKNTLYLQMNSLRAEDTAVYYCARVHRAFDYWGQGTLVTVSS VL: QSVLTQPPSASGTPGQRVTISCSGSPLFPDSGSFNWYQQLPGTAPKLLIYADSHRPSGVPDRFSGSKSGTSASLAISGLRSEDEADYYCGTWDYSLNRYVLGGGTKLTVLG
– | – | – | no binding (tested: 100 nM) | 0.0705 | 0.000126 | 1.79e+06 | no binding (tested: 100 nM) | 4R.N6 (antibody, V domains shown, Converted from scFab to IgG1 and expressed in HEK293F) VH: EVQLLESGGGLVQPGGSLRLSCAASGFTFSRHAMAWVRQAPGKGLEWVSAITMSGRSIYYADSVKGRFTISRDNSKNTLYLQMNSLRAEDTAVYYCARVHRAFDYWGQGTLVTVSS VL: QSVLTQPPSASGTPGQRVTISCSGSPLFPDSGSFNWYQQLPGTAPKLLIYADSHRPSGVPDRFSGSKSGTSASLAISGLRSEDEADYYCGTWDYSLNSYVLGGGTKLTVLG
– | – | – | no binding (tested: 100 nM) | 0.0431 | 6.07e-05 | 1.55e+06 | no binding (tested: 100 nM) | 4R.N7 (antibody, V domains shown, Converted from scFab to IgG1 and expressed in HEK293F) VH: EVQLLESGGGLVQPGGSLRLSCAASGFTFSRHAMAWVRQAPGKGLEWVSAITASGRSIYYADSVKGRFTISRDNSKNTLYLQMNSLRAEDTAVYYCARVHRAFDYWGQGTLVTVSS VL: QSVLTQPPSASGTPGQRVTISCSGSPLFPDSGSFNWYQQLPGTAPKLLIYADSHRPSGVPDRFSGSKSGTSASLAISGLRSEDEADYYCGTWDYSLSSYVLGGGTKLTVLG
– | – | – | no binding (tested: 100 nM) | 0.17 | 0.000338 | 1.99e+06 | no binding (tested: 100 nM) | 4R.N1 (antibody, V domains shown, Converted from scFab to IgG1 (pcDNA3.4 vector with IgG1 constant regions) and expressed in HEK293F) VH: EVQLLESGGGLVQPGGSLRLSCAASGFTFSRHAMAWVRQAPGKGLEWVSAITASGRSIYYADSVKGRFTISRDNSKNTLYLQMNSLRAEDTAVYYCARVHRAFDYWGQGTLVTVSS VL: QSVLTQPPSASGTPGQRVTISCSGSPLFPDSGSFNWYQQLPGTAPKLLIYADSHRPSGVPDRFSGSKSGTSASLAISGLRSEDEADYYCGTWDYSLNRYVLGGGTKLTVLG
– | – | – | no binding (tested: 100 nM) | 0.0997 | 0.000162 | 1.63e+06 | no binding (tested: 100 nM) | 4R.N4 (antibody, V domains shown, Converted from scFab to IgG1 and expressed in HEK293F) VH: EVQLLESGGGLVQPGGSLRLSCAASGFTFSRHAMAWVRQAPGKGLEWVSAITMSGRGIYYADSVKGRFTISRDNSKNTLYLQMNSLRAEDTAVYYCARVHRAFDYWGQGTLVTVSS VL: QSVLTQPPSASGTPGQRVTISCSGSPLFPDSGSFNWYQQLPGTAPKLLIYADSHRPSGVPDRFSGSKSGTSASLAISGLRSEDEADYYCGTWDYSLSAYVLGGGTKLTVLG
– | – | – | – | 0.0748 | 0.00012 | 1.6e+06 | – | 4R.N5 (antibody, V domains shown, Converted from scFab to IgG1 and expressed in HEK293F) VH: EVQLLESGGGLVQPGGSLRLSCAASGFTFSRHAMAWVRQAPGKGLEWVSAITASGMSIYYADFAKGRFTISRDNSKNTLYLQMNSLRAEDTAVYYCARVHRAFDYWGQGTLVTVSS VL: QSVLTQPPSASGTPGQRVTISCSGSPLFPDSGSFNWYQQLPGTAPKLLIYADSHRPSGVPDRFSGSKSGTSASLAISGLRSEDEADYYCGTWDYSLNRYVLGGGTKLTVLG
